{
  "source": "paper PMC6451123",
  "about": "“The G3-U70-independent tRNA recognition by human mitochondrial alanyl-tRNA synthetase” (Nucleic Acids Research, 2019)",
  "proteins": {"B1": {"name": "E. coli AlaRS (enzyme, UniProt P00957 1-876, looked up)", "chain": "MSKSTAEIRQAFLDFFHSKGHQVVASSSLVPHNDPTLLFTNAGMNQFKDVFLGLDKRNYSRATTSQRCVRAGGKHNDLENVGYTARHHTFFEMLGNFSFGDYFKHDAIQFAWELLTSEKWFALPKERLWVTVYESDDEAYEIWEKEVGIPRERIIRIGDNKGAPYASDNFWQMGDTGPCGPCTEIFYDHGDHIWGGPPGSPEEDGDRYIEIWNIVFMQFNRQADGTMEPLPKPSVDTGMGLERIAAVLQHVNSNYDIDLFRTLIQAVAKVTGATDLSNKSLRVIADHIRSCAFLIADGVMPSNENRGYVLRRIIRRAVRHGNMLGAKETFFYKLVGPLIDVMGSAGEDLKRQQAQVEQVLKTEEEQFARTLERGLALLDEELAKLSGDTLDGETAFRLYDTYGFPVDLTADVCRERNIKVDEAGFEAAMEEQRRRAREASGFGADYNAMIRVDSASEFKGYDHLELNGKVTALFVDGKAVDAINAGQEAVVVLDQTPFYAESGGQVGDKGELKGANFSFAVEDTQKYGQAIGHIGKLAAGSLKVGDAVQADVDEARRARIRLNHSATHLMHAALRQVLGTHVSQKGSLVNDKVLRFDFSHNEAMKPEEIRAVEDLVNTQIRRNLPIETNIMDLEAAKAKGAMALFGEKYDERVRVLSMGDFSTELCGGTHASRTGDIGLFRIISESGTAAGVRRIEAVTGEGAIATVHADSDRLSEVAHLLKGDSNNLADKVRSVLERTRQLEKELQQLKEQAAAQESANLSSKAIDVNGVKLLVSELSGVEPKMLRTMVDDLKNQLGSTIIVLATVVEGKVSLIAGVSKDVTDRVKAGELIGMVAQQVGGKGGGRPDMAQAGGTDAAALPAALASVKGWVSAKLQ", "notes": "Escherichia coli alanyl-tRNA synthetase; calculated molecular mass of 96 kDa; Construct, tags and host are not described; The calculated mass of 96 kDa would fit the whole protein; also called EcAlaRS; source: purified"}},
  "target": "the molecule itself",
  "test": "SEC; gel filtration of the purified enzyme; apparent molecular mass from the elution volumes of three standard proteins (apoferritin 443 kDa, yeast alcohol dehydrogenase 150 kDa, bovine serum albumin 66 kDa)",
  "data": [
    {"protein": "B1", "values": [
      {"measurement": "binding result", "result": "binds"}
    ]}
  ]
}
